How the values were obtained:
[1] = target: RNF4 C55S, C59S tagged with glycine-cysteine at its C terminus (RNF4-C196); experiment: cross-linking; disulfide dimer formation of RNF4-C196; 0.062, 0.12, 0.25, 0.5 and 1 μM protein, room temperature, 2 hr, no reducing agents, no SUMO; nonreducing SDS-PAGE and western blotting with an RNF4 antibody; the species is sensitive to DTT
[2] = target: T1, RNF4 wild type, recombinant, with N-terminal fusions of ECFP or YFP, O88846; experiment: FRET or BRET; in vitro FRET in the absence of poly-SUMO-2; YFP-RNF4 fixed at 0.5 μM, ECFP-RNF4 increased in 0.05 μM increments from 0 to 0.5 μM; triplicates; fit to a single binding site model; monomer to dimer; settings: remark: other sources report otherwise
T1 chain: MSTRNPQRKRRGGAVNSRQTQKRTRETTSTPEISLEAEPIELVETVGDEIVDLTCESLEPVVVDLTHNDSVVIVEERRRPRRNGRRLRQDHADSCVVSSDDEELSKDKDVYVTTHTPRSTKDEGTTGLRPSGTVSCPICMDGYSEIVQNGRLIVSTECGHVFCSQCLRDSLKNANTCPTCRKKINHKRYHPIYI

[3] = target: T1, RNF4 wild type, recombinant, with …; experiment: FRET or BRET; in vitro FRET in the presence of poly-SUMO-2; YFP-RNF4 fixed at 0.5 μM, ECFP-RNF4 increased in 0.05 μM increments from 0 to 0.5 μM; triplicates; apparent Kd from a fit to a single binding site model; settings: remark: other sources report otherwise
[4] = target: the molecule itself; experiment: FRET; with polySUMO-2

“RNF4 C55S, C59S tagged with glycine-cysteine at its C terminus (RNF4-C196) (enzyme)” was tested. Which stoichiometry N [1] did it give?
The stoichiometry N was 2.

B1: RNF4 wild type, recombinant, with N-terminal fusions of ECFP or YFP, O88846 1-194 (enzyme)
chain: MSTRNPQRKRRGGAVNSRQTQKRTRETTSTPEISLEAEPIELVETVGDEIVDLTCESLEPVVVDLTHNDSVVIVEERRRPRRNGRRLRQDHADSCVVSSDDEELSKDKDVYVTTHTPRSTKDEGTTGLRPSGTVSCPICMDGYSEIVQNGRLIVSTECGHVFCSQCLRDSLKNANTCPTCRKKINHKRYHPIYI
What does the source list for B1?
Kd [2]: 180 nM; Kd [3]: 60 nM

B2: RNF4 I194A, dimerization-deficient mutant, recombinant, with N-terminal fusions of ECFP or YFP (enzyme)
chain: MSTRNPQRKRRGGAVNSRQTQKRTRETTSTPEISLEAEPIELVETVGDEIVDLTCESLEPVVVDLTHNDSVVIVEERRRPRRNGRRLRQDHADSCVVSSDDEELSKDKDVYVTTHTPRSTKDEGTTGLRPSGTVSCPICMDGYSEIVQNGRLIVSTECGHVFCSQCLRDSLKNANTCPTCRKKINHKRYHPIYA
Which Kd [4] does the source give for B2 here?
The Kd was 166 nM.

Reference: article PMC3991395 (2014)
